According to patent US20250215412A1 (NOVOZYMES A S, published 2025):
Values joined by “and” are separate entries in the source; they are usually repeats but may differ in a detail not shown here. Equal values may be shown once.

T1: Chryseobacterium sp-62563 deamidase polypeptide (second polypeptide, deamidase domain), wildtype (Chryseobacterium sp-62563)
T1 sequence: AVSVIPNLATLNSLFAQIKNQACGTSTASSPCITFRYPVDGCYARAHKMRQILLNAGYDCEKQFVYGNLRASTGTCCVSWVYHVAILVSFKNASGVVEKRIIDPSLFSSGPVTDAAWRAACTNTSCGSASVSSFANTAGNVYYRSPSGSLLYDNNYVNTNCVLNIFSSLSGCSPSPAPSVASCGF


Target: T1, Chryseobacterium sp-62563 deamidase polypeptide (second polypeptide, deamidase domain), wildtype (Chryseobacterium sp-62563)
Assay: cell-based or functional assay

Row | Leakage activity | Relative activity of maturated deamidase (% initial rate) | NanoDSF thermal unfolding temperature [° C.] | Binder
1 | 0% | > 100 |  | Chryseobacterium sp-62563 propeptide A42K (protein) NQDPNLVAKESNETAMKDFGKTVPVGIEKEDGKFKISFMVTKQPYEIKDSKENAAYISMIKTAVENETPIHVFLKANTNEIAKVDKATDDDIRYFKSVFTKEVKEENRK
2 | 0% | > 100 |  | Chryseobacterium sp-62563 propeptide Y45S (protein) NQDPNLVAKESNETAMKDFGKTVPVGIEKEDGKFKISFMVTAQPSEIKDSKENAAYISMIKTAVENETPIHVFLKANTNEIAKVDKATDDDIRYFKSVFTKEVKEENRK
3 | 10% and 7% | 94 | 69.8 | Chryseobacterium sp-62563 propeptide V23S (protein) NQDPNLVAKESNETAMKDFGKTSPVGIEKEDGKFKISFMVTAQPYEIKDSKENAAYISMIKTAVENETPIHVFLKANTNEIAKVDKATDDDIRYFKSVFTKEVKEENRK
4 | 0% | 59 |  | Chryseobacterium sp-62563 propeptide Q43R (protein) NQDPNLVAKESNETAMKDFGKTVPVGIEKEDGKFKISFMVTARPYEIKDSKENAAYISMIKTAVENETPIHVFLKANTNEIAKVDKATDDDIRYFKSVFTKEVKEENRK
5 | 0% | 46 |  | Chryseobacterium sp-62563 propeptide T88P (protein) NQDPNLVAKESNETAMKDFGKTVPVGIEKEDGKFKISFMVTAQPYEIKDSKENAAYISMIKTAVENETPIHVFLKANTNEIAKVDKAPDDDIRYFKSVFTKEVKEENRK
6 | 0% | 48 |  | Chryseobacterium sp-62563 propeptide Y45K (protein) NQDPNLVAKESNETAMKDFGKTVPVGIEKEDGKFKISFMVTAQPKEIKDSKENAAYISMIKTAVENETPIHVFLKANTNEIAKVDKATDDDIRYFKSVFTKEVKEENRK
7 | 0% |  |  | Chryseobacterium sp-62563 propeptide Q43V (protein) NQDPNLVAKESNETAMKDFGKTVPVGIEKEDGKFKISFMVTAVPYEIKDSKENAAYISMIKTAVENETPIHVFLKANTNEIAKVDKATDDDIRYFKSVFTKEVKEENRK
8 | 0% | 34 |  | Chryseobacterium sp-62563 propeptide K86G (protein) NQDPNLVAKESNETAMKDFGKTVPVGIEKEDGKFKISFMVTAQPYEIKDSKENAAYISMIKTAVENETPIHVFLKANTNEIAKVDGATDDDIRYFKSVFTKEVKEENRK
9 | 2% | 73 |  | Chryseobacterium sp-62563 propeptide Y45N (protein) NQDPNLVAKESNETAMKDFGKTVPVGIEKEDGKFKISFMVTAQPNEIKDSKENAAYISMIKTAVENETPIHVFLKANTNEIAKVDKATDDDIRYFKSVFTKEVKEENRK
10 | 0% | 72 |  | Chryseobacterium sp-62563 propeptide Y94A (protein) NQDPNLVAKESNETAMKDFGKTVPVGIEKEDGKFKISFMVTAQPYEIKDSKENAAYISMIKTAVENETPIHVFLKANTNEIAKVDKATDDDIRAFKSVFTKEVKEENRK
11 | 2% | 53 |  | Chryseobacterium sp-62563 propeptide E67P (protein) NQDPNLVAKESNETAMKDFGKTVPVGIEKEDGKFKISFMVTAQPYEIKDSKENAAYISMIKTAVENPTPIHVFLKANTNEIAKVDKATDDDIRYFKSVFTKEVKEENRK
12 | 6% | 88 |  | Chryseobacterium sp-62563 propeptide Y45Q (protein) NQDPNLVAKESNETAMKDFGKTVPVGIEKEDGKFKISFMVTAQPQEIKDSKENAAYISMIKTAVENETPIHVFLKANTNEIAKVDKATDDDIRYFKSVFTKEVKEENRK
13 | 0% | 40 |  | Chryseobacterium sp-62563 propeptide L74S (protein) NQDPNLVAKESNETAMKDFGKTVPVGIEKEDGKFKISFMVTAQPYEIKDSKENAAYISMIKTAVENETPIHVFSKANTNEIAKVDKATDDDIRYFKSVFTKEVKEENRK
14 | 4% | > 100 |  | Chryseobacterium sp-62563 propeptide R93P (protein) NQDPNLVAKESNETAMKDFGKTVPVGIEKEDGKFKISFMVTAQPYEIKDSKENAAYISMIKTAVENETPIHVFLKANTNEIAKVDKATDDDIPYFKSVFTKEVKEENRK
15 | 0% |  |  | Chryseobacterium sp-62563 propeptide E52P (protein) NQDPNLVAKESNETAMKDFGKTVPVGIEKEDGKFKISFMVTAQPYEIKDSKPNAAYISMIKTAVENETPIHVFLKANTNEIAKVDKATDDDIRYFKSVFTKEVKEENRK
16 | 0% | > 100 |  | Chryseobacterium sp-62563 propeptide P69W (protein) NQDPNLVAKESNETAMKDFGKTVPVGIEKEDGKFKISFMVTAQPYEIKDSKENAAYISMIKTAVENETWIHVFLKANTNEIAKVDKATDDDIRYFKSVFTKEVKEENRK

Row | Leakage activity | Relative activity of maturated deamidase (% initial rate) | NanoDSF thermal unfolding temperature [° C.] | Binder
17 | 0% | 40 |  | Chryseobacterium sp-62563 propeptide Y45A (protein) NQDPNLVAKESNETAMKDFGKTVPVGIEKEDGKFKISFMVTAQPAEIKDSKENAAYISMIKTAVENETPIHVFLKANTNEIAKVDKATDDDIRYFKSVFTKEVKEENRK
18 | 0% | 42 |  | Chryseobacterium sp-62563 propeptide F73T (protein) NQDPNLVAKESNETAMKDFGKTVPVGIEKEDGKFKISFMVTAQPYEIKDSKENAAYISMIKTAVENETPIHVTLKANTNEIAKVDKATDDDIRYFKSVFTKEVKEENRK
19 | 0% |  |  | Chryseobacterium sp-62563 propeptide D49P (protein) NQDPNLVAKESNETAMKDFGKTVPVGIEKEDGKFKISFMVTAQPYEIKPSKENAAYISMIKTAVENETPIHVFLKANTNEIAKVDKATDDDIRYFKSVFTKEVKEENRK
20 | 0% | > 100 |  | Chryseobacterium sp-62563 propeptide P69Y (protein) NQDPNLVAKESNETAMKDFGKTVPVGIEKEDGKFKISFMVTAQPYEIKDSKENAAYISMIKTAVENETYIHVFLKANTNEIAKVDKATDDDIRYFKSVFTKEVKEENRK
21 | 2% | 31 |  | Chryseobacterium sp-62563 propeptide F73D (protein) NQDPNLVAKESNETAMKDFGKTVPVGIEKEDGKFKISFMVTAQPYEIKDSKENAAYISMIKTAVENETPIHVDLKANTNEIAKVDKATDDDIRYFKSVFTKEVKEENRK
22 | 0% | 49 |  | Chryseobacterium sp-62563 propeptide V64L (protein) NQDPNLVAKESNETAMKDFGKTVPVGIEKEDGKFKISFMVTAQPYEIKDSKENAAYISMIKTALENETPIHVFLKANTNEIAKVDKATDDDIRYFKSVFTKEVKEENRK
23 | 0% | 55 |  | Chryseobacterium sp-62563 propeptide D90P (protein) NQDPNLVAKESNETAMKDFGKTVPVGIEKEDGKFKISFMVTAQPYEIKDSKENAAYISMIKTAVENETPIHVFLKANTNEIAKVDKATDPDIRYFKSVFTKEVKEENRK
24 | 3% |  |  | Chryseobacterium sp-62563 propeptide A76P (protein) NQDPNLVAKESNETAMKDFGKTVPVGIEKEDGKFKISFMVTAQPYEIKDSKENAAYISMIKTAVENETPIHVFLKPNTNEIAKVDKATDDDIRYFKSVFTKEVKEENRK
25 | 3% | 64 |  | Chryseobacterium sp-62563 propeptide Q43K (protein) NQDPNLVAKESNETAMKDFGKTVPVGIEKEDGKFKISFMVTAKPYEIKDSKENAAYISMIKTAVENETPIHVFLKANTNEIAKVDKATDDDIRYFKSVFTKEVKEENRK
26 | 0% |  |  | Chryseobacterium sp-62563 propeptide Y94E (protein) NQDPNLVAKESNETAMKDFGKTVPVGIEKEDGKFKISFMVTAQPYEIKDSKENAAYISMIKTAVENETPIHVFLKANTNEIAKVDKATDDDIREFKSVFTKEVKEENRK
27 | 0% | > 100 |  | Chryseobacterium sp-62563 propeptide Q43D (protein) NQDPNLVAKESNETAMKDFGKTVPVGIEKEDGKFKISFMVTADPYEIKDSKENAAYISMIKTAVENETPIHVFLKANTNEIAKVDKATDDDIRYFKSVFTKEVKEENRK
28 | 2% | > 100 | 65.2 | Chryseobacterium sp-62563 propeptide Y45G (protein) NQDPNLVAKESNETAMKDFGKTVPVGIEKEDGKFKISFMVTAQPGEIKDSKENAAYISMIKTAVENETPIHVFLKANTNEIAKVDKATDDDIRYFKSVFTKEVKEENRK
29 | 0% |  |  | Chryseobacterium sp-62563 propeptide Q43H (protein) NQDPNLVAKESNETAMKDFGKTVPVGIEKEDGKFKISFMVTAHPYEIKDSKENAAYISMIKTAVENETPIHVFLKANTNEIAKVDKATDDDIRYFKSVFTKEVKEENRK
30 | 2% | > 100 | 73.7 | Chryseobacterium sp-62563 propeptide Y45T (protein) NQDPNLVAKESNETAMKDFGKTVPVGIEKEDGKFKISFMVTAQPTEIKDSKENAAYISMIKTAVENETPIHVFLKANTNEIAKVDKATDDDIRYFKSVFTKEVKEENRK
31 | 0% |  |  | Chryseobacterium sp-62563 propeptide V7P (protein) NQDPNLPAKESNETAMKDFGKTVPVGIEKEDGKFKISFMVTAQPYEIKDSKENAAYISMIKTAVENETPIHVFLKANTNEIAKVDKATDDDIRYFKSVFTKEVKEENRK
